This note sets out measurements from patent US20150266962A1 (Pfizer, published 2015).

The target of assay [1] is T1, recombinant human IL-13 receptor alpha 2 (hIL-13-Rα2) (human, UniProt Q14627 27-343).
T1 construct: Recombinant soluble antigen coated on ELISA plates or used in Biacore; also called rec hIL-13Rα2; rhIL-13Rα2
T1 sequence (looked up): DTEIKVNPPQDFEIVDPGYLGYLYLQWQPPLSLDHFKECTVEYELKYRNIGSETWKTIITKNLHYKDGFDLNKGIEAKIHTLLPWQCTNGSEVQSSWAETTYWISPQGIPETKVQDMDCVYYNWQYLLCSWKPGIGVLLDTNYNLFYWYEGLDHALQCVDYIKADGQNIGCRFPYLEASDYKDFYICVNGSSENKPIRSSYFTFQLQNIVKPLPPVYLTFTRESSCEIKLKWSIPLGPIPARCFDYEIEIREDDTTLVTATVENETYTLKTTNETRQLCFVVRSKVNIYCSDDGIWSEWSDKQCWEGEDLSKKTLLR
Kind of assay: standard ELISA on hIL-13-Rα2 (given as ED50). (In general: ELISA stands for enzyme-linked immunosorbent assay.)

Assay [2] addresses T1, recombinant human IL-13 receptor alpha …. The assay can be described thus: direct ELISA on recombinant hIL-13-Rα2 (given as ED50). The procedure: (§1) Chimeric antibodies 07 and 08 (ch07 and ch08) were constructed having murine heavy chain and light chain variable region sequences with human IgG1 heavy chain constant regions and human kappa light chain constant regions using methods known in the art. To assess the binding activity and specificity of ch07 and ch08, a standard direct ELISA protocol was performed utilizing recombinant hIL-13-Rα2 and hIL-13Ra1, receptors for IL-13 cytokine. The binding was detected by horseradish peroxidase (HRP) conjugated goat anti-human IgGKappa.

The target is the same in assay [3]. Kind of assay: SPR Biacore, human Fab Capture Kit, 1:1 Langmuir model, pH 6.0. The procedure: (§2) To assess the binding kinetics of the ch07 and ch08 antibodies, SPR (Surface Plasmon Resonance) experiments were conducted on a Biacore® T100 or T200 instrument using a Biacore® human Fab Capture Kit (GE Healthcare). All data was analyzed using the Biacore® T100 evaluation software version 2.0 with a 1:1 Langmuir binding model.

Assay [4] has the same target. Kind of assay: SPR Biacore, human Fab Capture Kit, 1:1 Langmuir model, pH 7.4. The procedure: as §2
(In general: In SPR one partner is held on a chip, and binding of the other changes the refractive index at the surface.)

For assay [5], the target named is T2, cynomolgus monkey IL-13-Rα2 ECD/TM domain with C-terminal Flag tag, on transfected HEK293 cells (cynomolgus monkey, UniProt Q14627 27-363 (human entry)).
T2 construct: also called cyno-IL-13-Rα2; cyno IL-13Rα2; not shown: Flag tag at the C-terminal end
T2 chain: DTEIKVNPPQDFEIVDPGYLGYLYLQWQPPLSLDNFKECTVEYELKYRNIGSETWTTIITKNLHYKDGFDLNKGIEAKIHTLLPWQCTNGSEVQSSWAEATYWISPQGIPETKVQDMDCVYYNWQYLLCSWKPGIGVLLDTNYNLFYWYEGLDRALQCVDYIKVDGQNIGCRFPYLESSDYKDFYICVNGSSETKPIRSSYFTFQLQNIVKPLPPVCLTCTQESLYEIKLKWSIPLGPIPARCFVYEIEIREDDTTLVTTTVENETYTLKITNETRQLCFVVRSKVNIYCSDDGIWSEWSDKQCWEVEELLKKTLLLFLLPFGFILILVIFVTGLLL
Kind of assay: FACS on HEK293 cells transfected with cyno-IL-13-Rα2 (given as ED50). The procedure: The ECD/TM domain of cyno IL-13-Rα2 fused with Flag tag at the C-terminal end was cloned into the pSMED2 expression vector. HEK293 suspension cells were transiently transfected with cyno-IL-13-Rα2 containing plasmid and pSMED2 vector (as a mock transfection). The cells were harvested 72 hours later and subjected to FACS analysis. 4 antibodies including ch07, ch08, hu08v1.0/1.0 and hu08v1.1/1.1 were tested. The binding on the cell surface cyno-IL-13-Rα2 was detected with R-Phycoerythrin-labeled goat anti-human or mouse IgG.

Assay [6] addresses T3, recombinant human IL-13 receptor alpha 1 (hIL-13Rα1) (human, UniProt P78552 22-343).
T3 construct: also called hIL-13Ra1
T3 sequence (looked up): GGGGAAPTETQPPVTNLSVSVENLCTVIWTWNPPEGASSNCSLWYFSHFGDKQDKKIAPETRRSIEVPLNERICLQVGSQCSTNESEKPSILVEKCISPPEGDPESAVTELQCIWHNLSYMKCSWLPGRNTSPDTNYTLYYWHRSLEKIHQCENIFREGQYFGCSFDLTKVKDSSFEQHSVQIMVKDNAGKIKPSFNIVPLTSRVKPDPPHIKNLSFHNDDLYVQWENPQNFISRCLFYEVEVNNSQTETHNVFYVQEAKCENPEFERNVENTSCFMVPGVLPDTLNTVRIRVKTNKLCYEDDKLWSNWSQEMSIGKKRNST
The assay can be described thus: direct ELISA on plate-coated recombinant hIL-13Rα1, detected with HRP goat anti-human Ig kappa. The procedure: as §1

Assay [7] has as its target T1, recombinant human IL-13 receptor alpha …. The assay can be described thus: direct ELISA on coated recombinant hIL-13-Rα2. The procedure: Humanized hu08 binding to recombinant hIL-13-Rα2 was evaluated by a standard direct ELISA. Recombinant hIL-13-Rα2 was coated onto a 96-well plate. Serially diluted chimeric antibodies or humanized antibodies in combinations of heavy and light chains of versions 1.0 and 1.1 e.g. hu08 v1.0 HC/1.0 LC, hu08 v1.0 HC/v1.1 LC, hu08 v1.1 HC/v1.0 LC, and hu08 v1.1 HC/v1.1 LC, were added to the plate and incubated at room temperature for 1-2 hours. The binding was detected by HRP conjugated goat anti-human Ig Kappa.

What is called EC50 is the concentration needed to bring the measured effect to its halfway point. In general, Kd refers to the concentration at which binding is half-saturated. The term koff denotes the first-order rate constant of dissociation. As usually defined, the kon is a measure of how fast the partners come together.

B1: chimeric antibody ch07 (antibody, human IgG1, V domains shown)
VH: QVQLKESGPGLVAPSQSLSINCTVSGFSLTKYGVHWIRQSPGKGLEWLGVKWAGGSTDYNSALMSRLTISKDNNKSQVFLKMNSLQSDDSAMYYCARDHRDAMDYWGQGTSVTVSS
VL: QVVLTQSPAIMSASPGERVTMTCTASLSVSSTYLHWYHQKPGSSPKLWIYSTSNLASGVPARFSGSGSGTSYSLTISSMEAEDAATYYCHQYHRSPLTFGSGTKLELK
notes: also called chimeric antibody 07; biotin-ch07 (biotinylated form)
With B1, the results for the EC50 in assay [1], in assay [2] and in assay [5] were 0.1 nM, 0.15 nM and 1.49 nM, respectively. Besides, the values for the Kd in assay [3] and in assay [4] were 5.24 nM and 0.648 nM, respectively. Also, the koff worked out at 0.000337 s⁻¹ in assay [3] and 0.000234 s⁻¹ in assay [4]. Besides, the kon came out at 64300 M⁻¹ s⁻¹ in assay [3] and 361000 M⁻¹ s⁻¹ in assay [4]. Also, in assay [6], the binding result is on record as “no binding (tested: about 7 nM)”.

B2: chimeric antibody ch08 (antibody, human IgG1, V domains shown)
VH: EVQLVESGGDLVRPGGSLQLSCAASGFTFSRNGMSWVRQTPDRRLEWVATVSSGGSYIYYADSVKGRFTISRDNARNTLYLQMSSLKSEDTAMYYCARQGTTALATRFFDVWGAGTTVTVSS
VL: DIVMTQSHKFISTSVGDRVSITCKASQDVGTAVAWYQQIPGQSPKLLIYSASYRSTGIPDRFTGSGSGTDFSFIISSVQAEDLALYYCQHHYSAPWTFGGGTTLDIK
notes: also called ch08Hc + Lc; chimeric antibody 08
Take B2: the 50% effective concentration (EC50) in assay [7] is 0.152 nM; in assay [2], 0.076 nM; in assay [5] it was 1.81 nM. In addition, the Kd amounted to 5.36 nM in assay [3] and 0.964 nM in assay [4]. The koff in assay [3] was determined as 0.000381 s⁻¹; in assay [4], 0.000416 s⁻¹. Moreover, the kon in assay [3] is 71200 M⁻¹ s⁻¹; in assay [4], 432000 M⁻¹ s⁻¹. For the same molecule, the binding result in assay [6] is on record as “no binding (tested: about 7 nM)”.
